# Data: the RNAGym collection of RNA variant scans (doi:10.7554/elife.80360)
# B1: Hammerhead Ribozyme (parent)
# chain: ACCGGAUGUGCUUUCCGGUCUGAUGAGUCCGUGAGGACGAAACAG
# Variants of: B1
# Assay: self-cleavage, relative activity (ratio to wild type); higher = more cleavage; co-transcriptional
row,Variant,self-cleavage
1,G17U G33C,0.851
2,G17C G36C,0.246
3,G17C G36U,0.392
4,G17C G36A,0.361
5,G17U G18C,0.503
6,G17U G18U,0.442
7,G17U G18A,0.419
8,G17A C30A,0.561
9,G17A C30G,0.476
10,G17A C30U,0.622
11,G17U U32A,0.764
12,G17U U32C,0.633
13,G17U U32G,0.73
14,G17C U19G,0.337
15,G17C U19A,0.335
16,G17C U19C,0.332
17,G17U G39C,0.348
18,G17U G39A,0.328
19,G17U G39U,0.357
20,G17A G31U,0.788
21,G17A G31A,0.875
22,G17A G31C,0.652
23,G17C A34U,0.501
24,G17C A34C,0.438

row,Variant,self-cleavage
1,G17C A34G,0.436
2,G17A A44C,0.513
3,G17A A44G,0.742
4,G17A A44U,0.449
5,G17U G27A,0.643
6,G17U G27U,0.513
7,G17U G27C,0.486
8,C16U G45C,0.921
9,C16U G45A,0.89
10,C16U G45U,0.688
11,G17A U21A,0.351
12,G17A U21G,0.39
13,G17A U21C,0.294
14,C16U U32G,1
15,C16U U32C,0.879
16,C16U U32A,1.02
17,G17A A40C,0.347
18,G17A A40G,0.361
19,G17A A40U,0.354
20,G17A G25A,0.353
21,G17A G25C,0.321
22,G17A G25U,0.372
23,C16U G36U,0.507
24,C16U G36C,0.375

row,Variant,self-cleavage
1,C16U G36A,0.636
2,G17A A34G,0.56
3,G17A A34U,0.613
4,G17A A34C,0.562
5,G18A A23G,0.361
6,G18A A23U,0.345
7,G18A A23C,0.355
8,G17A U28G,0.567
9,G17A U28A,0.42
10,G17A U28C,0.331
11,G17U C38G,0.539
12,G17U C38A,0.465
13,G17U C38U,0.758
14,C16U G33A,1.14
15,C16U G33U,0.945
16,C16U G33C,1.17
17,G17A C29U,0.68
18,G17A C29A,0.441
19,G17A C29G,0.462
20,G17A U32G,0.613
21,G17A U32C,0.812
22,G17A U32A,0.62
23,G17U G36U,0.46
24,G17U G36C,0.336

row,Variant,self-cleavage
1,G17U G36A,0.621
2,G17U U21C,0.306
3,G17U U21A,0.591
4,G17U U21G,0.387
5,G17U A34G,0.604
6,G17U A34C,0.46
7,G17U A34U,0.531
8,G17C A42U,0.284
9,G17C A42G,0.335
10,G17C A42C,0.316
11,G17U A42G,0.333
12,G17U A42U,0.369
13,G17U A42C,0.394
14,G17U G45C,0.513
15,G17U G45A,0.436
16,G17U G45U,0.589
17,G17U G25C,0.319
18,G17U G25A,0.347
19,G17U G25U,0.37
20,G17U C20U,0.501
21,G17U C20G,0.359
22,G17U C20A,0.422
23,G17A G35C,0.548
24,G17A G35A,0.623

row,Variant,self-cleavage
1,G17A G35U,0.455
2,C16U G25U,0.356
3,C16U G25C,0.265
4,C16U G25A,0.338
5,C16U G39U,0.378
6,C16U G39A,0.327
7,C16U G39C,0.391
8,C16U C38U,1.03
9,C16U C38G,0.717
10,C16U C38A,0.73
11,G17C G22C,0.326
12,G17C G22U,0.284
13,G17C G22A,0.274
14,G17U G22C,0.314
15,G17U G22A,0.368
16,G17U G22U,0.359
17,C16U C43U,0.495
18,C16U C43A,0.352
19,C16U C43G,0.352
20,G17C A40C,0.328
21,G17C A40U,0.3
22,G17C A40G,0.373
23,G17C C38G,0.452
24,G17C C38U,0.453

row,Variant,self-cleavage
1,G17C C38A,0.451
2,G17C U28A,0.391
3,G17C U28G,0.395
4,G17C U28C,0.276
5,G18A A26G,0.331
6,G18A A26U,0.423
7,G18A A26C,0.366
8,G18A,0.831
9,C16U G17A,0.556
10,C16U G17C,0.551
11,C16U G17U,0.714
12,G17A G39A,0.326
13,G17A G39U,0.316
14,G17A G39C,0.333
15,G17U A40C,0.449
16,G17U A40U,0.376
17,G17U A40G,0.388
18,C16U G31A,0.731
19,C16U G31C,0.844
20,C16U G31U,1.2
21,G17A C43A,0.372
22,G17A C43U,0.335
23,G17A C43G,0.441
24,C16U U24G,1.16

row,Variant,self-cleavage
1,C16U U24A,0.747
2,C16U U24C,1.12
3,G17A G18U,0.318
4,G17A G18C,0.341
5,G17A G18A,0.294
6,G18A A37C,0.611
7,G18A A37U,0.55
8,G18A A37G,0.676
9,G17C A44U,0.414
10,G17C A44G,0.664
11,G17C A44C,0.418
12,G17C A37C,0.505
13,G17C A37G,0.355
14,G17C A37U,0.359
15,G17A G36C,0.263
16,G17A G36U,0.418
17,G17A G36A,0.442
18,G17C C43A,0.319
19,G17C C43G,0.311
20,G17C C43U,0.404
21,G17C C29U,0.542
22,G17C C29G,0.349
23,G17C C29A,0.419
